# Marks after values point to notes of the source that are not given here.
# What was measured:
# Caco-2 cells [1] = test: LDH release assay; conditions: 25 μg/mL Cur, within 2 h, versus control
# Description: A lactate dehydrogenase (LDH) assay kit (Beyotime, Haimen, China) was used to determine the ability of PCur to destroy cell membranes. Briefly, Caco-2 cells seeded in a 96-well plate were incubated with Cur solution and PCur at 25 μg/mL concentration of Cur for 2 h, and serum-free medium was used as a control. After 1 h of incubation, 20 μL LDH release medium was added, followed by 1 h of co-incubation. One hundred and twenty microliter supernatant was transferred to a new plate at a determined time interval, followed by the addition of 60 μL LDH test medium and incubated for 30 min with gentle shaking. Finally, the absorption was measured at 490 nm on a microplate reader (Bio-Rad 500, Hercules, CA).
# Caco-2 cells [2] = test: In vitro cytotoxicity by MTT assay; conditions: 1 to 100 μg/mL Cur, 2 h incubation
# Description: In vitro cytotoxicity of PCur and Cur solution was assessed in Caco-2 cells by MTT assay. Caco-2 cells were seeded at a density of 1 × 10^5 cells/mL in 100 μL DMEM culture medium in a 96-well plate at 37 °C and 5% CO2. After 24 h of incubation, Caco-2 cells were exposed to Cur and PCur solution with different Cur concentrations for 2 h. Meanwhile, serum-free medium incubation without drug was utilized as a control. MTT solution (20 μL, 5 mg/mL in PBS) was then added to each well, and the cells were further incubated for 4 h. The supernatant was removed and 100 μL of DMSO was introduced to each well to dissolve formazan crystals. Optical density (OD) was measured with a microplate reader (Thermo Scientific, Waltham, MA) at 570 nm. The experiments were repeated at least four times. Cell viability (%) was calculated as the ratio of OD in test samples to OD in control samples.
# DSS-induced IBD = test: Pharmacodynamics in a murine DSS-induced IBD model (body weight, DAI, colon length, histology); format: in vivo, female C57BL/6 mice; conditions: for disease activity index (DAI) / recovery of shortened colon length / weight loss: 3% DSS for seven days, daily gavage, Cur 50 mg/kg; for weight loss: versus DSS or Cur suspension
# Description: (§1) Animal experiments were performed in female C57BL/6 mice (eight weeks, 18–20 g). Colitis was induced by feeding mice with a 3% (wt./vol) DSS solution as drinking water for seven days. The daily evaluation of mice was based on changes in body weight and development of the clinical symptoms of colitis. Disease activity index (DAI) was calculated according to the parameter previously reported (Li et al., [2015]). […] The dosage of Cur was set at 50 mg/kg. Mice were sacrificed on day 7, and histological assessment of colonic inflammation was carried out by hematoxylin and eosin (H&E) staining of 5 μm colonic tissue sections, observed by microscopy (×20 magnification). The samples were scored for inflammatory infiltration (0–3), epithelial abnormality (0–3) and crypt damage (0–3) and then the values of the three variables were summed as an indicator of inflamed degree (Magro et al., [2013]).
# IL-6 = IL-6 level in colonic tissue by ELISA, DSS-induced IBD mice; format: in vivo, female C57BL/6 mice; conditions: oral, Cur 50 mg/kg
# Description: as §1, with “[2013]). The levels of IL-6 and TNF-α in homogenized colonic tissue were measured by quantitative enzyme-linked immunosorbent assay (ELISA) kits according to manufacturer’s instructions (R&D Systems Inc., Minneapolis, MN). The final values of IL-6 and TNF-α were expressed as pg/mg or ng/mg protein (Qiao et al., [2014]).” for “[2013]).”
# TNF-α = TNF-α level in colonic tissue by ELISA, DSS-induced IBD mice; format: in vivo, female C57BL/6 mice; conditions: oral, Cur 50 mg/kg
# Description: as §1, with “[2013]). The levels of IL-6 and TNF-α in homogenized colonic tissue were measured by quantitative enzyme-linked immunosorbent assay (ELISA) kits according to manufacturer’s instructions (R&D Systems Inc., Minneapolis, MN). The final values of IL-6 and TNF-α were expressed as pg/mg or ng/mg protein (Qiao et al., [2014]).” for “[2013]).”
# [3] = Particle size and zeta potential by dynamic light scattering; format: physicochemical; conditions: in water, 25 °C
# [4] = Drug-loading content (Cur content in PCur); format: physicochemical
# [5] = In vitro release of Cur from PCur in pH 7.4 PBS with or without GSH; format: physicochemical
# [6] = In vitro release of PCur under different pH conditions; format: physicochemical
# Description: Effect of pH values on drug release was also evaluated in the following buffers: hydrochloric acid/potassium chloride (pH 1.2), acetic acid/sodium acetate (pH 6.5) and PBS (pH 7.4). Buffer selection was based on the normal variations of the pH in the GIT from the stomach (pH 1.5) and the proximal small intestine (pH 6.0–6.8) to the ileocecal region (pH 7.3) (Hua et al., [2015]). One milliliter of sample (containing 1.2 mg of Cur) was placed in a dialysis bag, immersed into each media containing 0.1% (w/v) Tween 80 for drug release.
# [7] = In vitro stability testing of PCur (size by DLS, morphology by TEM); format: physicochemical; conditions: 37 °C
# Description: A small portion of solution was collected at predetermined time points to measure the size distribution of PCur conjugate by DLS.
# Caco-2 cell monolayer = test: Transcellular study, apparent permeability coefficient; format: in vitro ADME
# Description: A 400 μL of culture medium was added to the apical (AP) side, and 600 μL was added to the basolateral (BL) side. The medium in both the AP and BL sides was changed every two days for the first week and every day thereafter. After 21 days of incubation, the integrity of the cell monolayers was evaluated by measuring transepithelial electrical resistance (TEER) values using a Millicell® electrical resistance system (Millipore, Billerica, MA). When the TEER value of inserts exceeded […], indicating cell monolayers were integrated and tight junctions were intact, they were selected for further transport studies. For transcellular research, the culture medium in the AP and BL side was removed and changed by HBSS. […] Six hundred microliter of fresh HBSS was added to the BL side. […] One hundred microliter of sample was mixed with 50 μL chloramphenicol (IS) and 50 μL acetonitrile, vortexed and centrifuged. The concentration of Cur in supernatant was determined by UPLC–MS/MS. At the end of the experiment, TEER values were assayed to estimate the integrity of the cell monolayers. The apparent permeability coefficient (Papp) for Cur was calculated according to the following equation: Papp=(dQ/dt)/(A×C0) where the dQ/dt was the drug permeation rate, A was the surface area of polycarbonate membrane and C0 was the initial concentration of Cur in AP side.
# [8] = Pharmacokinetic study after oral administration; design: species or system Sprague–Dawley (SD) rats; conditions: rat, in vivo, 50 mg/kg
# Description: Pharmacokinetics of PCur and Cur suspension were tested in SD rats, which were randomly divided into two study groups with six in each group. […] Three hundred microliter of blood samples were collected at 5, 10, 15, 30 and 45 min, 1, 2, 4, 8, 12 and 24 h post oral gavage and centrifuged at 12 000 rpm for 10 min. The supernatant plasma was collected and stored at −20 °C for UPLC–MS/MS analysis. The concentration of Cur was determined by a Waters ACQUITY UPLC system using a Xevo Triple Quadrupole MS equipped with an electrospray ionization (ESI) interface (Waters Co., Milford, MA). One hundred microliter plasma was mixed with 50 μL chloramphenicol (IS) and 50 μL acetonitrile, followed by vortexing for 3 min, and centrifuged at 12 000 rpm for 10 min. […] An aliquot of 5 μL was injected into the UPLC–MS/MS for analysis. Pharmacokinetic parameters were calculated using DAS 2.1 software (BioGuider Co., Shanghai, China).
# MPO activity = test: Myeloperoxidase (MPO) activity in colon of DSS-induced IBD mice; format: in vivo, female C57BL/6 mice; conditions: oral, Cur 50 mg/kg
# Description: as §1, with “[2013]). Neutrophil infiltration into the colon can be quantified by measuring MPO activity. […] The homogenate was then sonicated for 10 s, freeze-thawed three times, and centrifuged at 12 000 rpm for 15 min. The supernatant was then added to 1 mg/mL o-dianisidine hydrochloride and 0.0005% hydrogen peroxide, and the change in absorbance at 460 nm was measured.” for “[2013]).”
# MDA content = test: Malondialdehyde (MDA) content of colon of DSS-induced IBD mice; format: in vivo, female C57BL/6 mice; conditions: oral, Cur 50 mg/kg
# Description: as §1, with “[2013]). Lipid peroxidation was evaluated by measuring the MDA content of the colon according to standard procedure protocol described in MDA Assay Kit (Beyotime, Haimen, China). In short, the colorimetric determination of MDA is based on the reaction of the reactive aldehyde with thiobarbituric acid at low pH (2–3) and temperature of 95 °C for 45 min. The pinkish resultant was extracted by n-butanol, and the absorbance was determined at 535 and 520 nm spectrophotometrically. […]” for “[2013]).”
compound,measurement,setting,value
"COc1cc(/C=C/C(=O)CC(=O)/C=C/c2ccc(O)c(OC)c2)ccc1O [Cur solution, Curcumin]",LDH leakage,Caco-2 cells [1],no significant LDH leakage
same,cellular viability,Caco-2 cells [2],neither Cur solution nor PCur induced any significant changes
"O=C(O)c1cc(/N=N/c2ccc(S(=O)(=O)Nc3ccccn3)cc2)ccc1O [SSZ, sulfasalazine, reference compound]",disease activity index (DAI),DSS-induced IBD,successfully mitigated
same,recovery of shortened colon length,DSS-induced IBD,strongest efficacies
same,weight loss,DSS-induced IBD,less weight loss
same,inhibition of the production of IL-6 in colonic tissue,IL-6,strongest efficacy
same,inhibition of the production of TNF-α in colonic tissue,TNF-α,strongest efficacy
PEG-ss-curcumin [PCur],average particle size,[3]; DLS,134.4 ± 4.2 nm
same,Zeta potential,[3],−3.3 ± 1.2 mV
same,loading content,[4]; calculated from integrated areas of 1H NMR spectra,12.5%
same,loading content,[4]; determined by fluorescence spectra,~14.6%
same,Cur released,"[5]; pH 7.4 PBS with 10 mM GSH, in 2 h",~30%
same,Cur released,"[5]; pH 7.4 PBS with 10 mM GSH, within 24 h",53%
same,Cur released,"[5]; pH 7.4 buffer, without or with 10 μM GSH, first 2 h",less than 10%
same,Cur released,"[5]; pH 7.4 buffer, without or with 10 μM GSH, within 24 h",approximately 15%
same,Cur released,"[6]; buffer of pH 6.5, 24 h",less than 25%
same,Cur released,"[6]; buffer of pH 6.5, first 2 h",10%
same,pH-responsive release characteristic,"[6]; pH 7.4, 6.5 and 1.2",No significant pH-responsive release characteristic
same,change of particle size distribution,[7]; pH 1.2 and pH 7.4 PBS,little change
same,change of mean diameter,[7]; pH 7.4 PBS with 10 mM GSH,substantially increased
same,apparent permeability coefficient (Papp) of Cur,Caco-2 cell monolayer,2.38 ± 0.29 × 10^−6 cm/s
same,AUC0–24 h,[8],202.05 ± 6.72^b h ng/mL
same,AUC0–∞,[8],223.52 ± 5.25^b h ng/mL
same,AUC(0 − 24) increase relative to Cur suspension,[8],8.63 times
same,Cmax,[8],23.35 ± 0.96^b ng/mL
same,Cmax relative to Cur suspension,[8],3.41 fold
same,MRT0–∞,[8],9.60 ± 2.28^a h
same,T1/2,[8],6.77 ± 1.40 h
same,Tmax,[8],0.50 ± 0.25^a h
same,disease activity index (DAI),DSS-induced IBD,successfully mitigated
same,recovery of shortened colon length,DSS-induced IBD,strongest efficacies
same,weight loss,DSS-induced IBD,less weight loss
same,histological examination of colon (H&E),"DSS-induced IBD; day 7, versus DSS mice receiving PBS or Cur suspension","intact epitheliums, well-defined crypt structures and relatively low levels of neutrophil invasion"
same,MPO activity in colonic tissue,MPO activity,strongly decreased
same,MDA content in colonic tissue,MDA content,strongly decreased
same,inhibition of the production of IL-6 in colonic tissue,IL-6,strongest efficacy
same,inhibition of the production of TNF-α in colonic tissue,TNF-α,strongest efficacy

# Source: publication PMC8240970, “Orally delivered polycurcumin responsive to bacterial reduction for targeted therapy of inflammatory bowel disease” (Drug Delivery, 2017)
